Source: IntAct's records for PubMed 22653727

B1: Circadian locomoter output cycles protein kaput (Mus musculus), O08785 (parent)
chain: MVFTVSCSKMSSIVDRDDSSIFDGLVEEDDKDKAKRVSRNKSEKKRRDQFNVLIKELGSMLPGNARKMDKSTVLQKSIDFLRKHKETTAQSDASEIRQDWKPTFLSNEEFTQLMLEALDGFFLAIMTDGSIIYVSESVTSLLEHLPSDLVDQSIFNFIPEGEHSEVYKILSTHLLESDSLTPEYLKSKNQLEFCCHMLRGTIDPKEPSTYEYVRFIGNFKSLTSVSTSTHNGFEGTIQRTHRPSYEDRVCFVATVRLATPQFIKEMCTVEEPNEEFTSRHSLEWKFLFLDHRAPPIIGYLPFEVLGTSGYDYYHVDDLENLAKCHEHLMQYGKGKSCYYRFLTKGQQWIWLQTHYYITYHQWNSRPEFIVCTHTVVSYAEVRAERRRELGIEESLPETAADKSQDSGSDNRINTVSLKEALERFDHSPTPSASSRSSRKSSHTAVSDPSSTPTKIPTDTSTPPRQHLPAHEKMTQRRSSFSSQSINSQSVGPSLTQPAMSQAANLPIPQGMSQFQFSAQLGAMQHLKDQLEQRTRMIEANIHRQQEELRKIQEQLQMVHGQGLQMFLQQSNPGLNFGSVQLSSGNSNIQQLTPVNMQGQVVPANQVQSGHISTGQHMIQQQTLQSTSTQQSQQSVMSGHSQQTSLPSQTPSTLTAPLYNTMVISQPAAGSMVQIPSSMPQNSTQSATVTTFTQDRQIRFSQGQQLVTKLVTAPVACGAVMVPSTMLMGQVVTAYPTFATQQQQAQTLSVTQQQQQQQQQPPQQQQQQQQSSQEQQLPSVQQPAQAQLGQPPQQFLQTSRLLHGNPSTQLILSAAFPLQQSTFPPSHHQQHQPQQQQQLPRHRTDSLTDPSKVQPQ

Key:
Details in all cases: with Bmal1, Q9WTL8-4
Bmal1, Q9WTL8-4 [1] = variants of: B1
Bmal1, Q9WTL8-4 [2] = variants of: B1; remark: listed apart in the source
Bmal1, Q9WTL8-4 [3] = variants of: B1; remark: listed apart in the source

Sequence of Bmal1, Q9WTL8-4 (Q9WTL8 other isoform, or with tags, fused parts or gaps): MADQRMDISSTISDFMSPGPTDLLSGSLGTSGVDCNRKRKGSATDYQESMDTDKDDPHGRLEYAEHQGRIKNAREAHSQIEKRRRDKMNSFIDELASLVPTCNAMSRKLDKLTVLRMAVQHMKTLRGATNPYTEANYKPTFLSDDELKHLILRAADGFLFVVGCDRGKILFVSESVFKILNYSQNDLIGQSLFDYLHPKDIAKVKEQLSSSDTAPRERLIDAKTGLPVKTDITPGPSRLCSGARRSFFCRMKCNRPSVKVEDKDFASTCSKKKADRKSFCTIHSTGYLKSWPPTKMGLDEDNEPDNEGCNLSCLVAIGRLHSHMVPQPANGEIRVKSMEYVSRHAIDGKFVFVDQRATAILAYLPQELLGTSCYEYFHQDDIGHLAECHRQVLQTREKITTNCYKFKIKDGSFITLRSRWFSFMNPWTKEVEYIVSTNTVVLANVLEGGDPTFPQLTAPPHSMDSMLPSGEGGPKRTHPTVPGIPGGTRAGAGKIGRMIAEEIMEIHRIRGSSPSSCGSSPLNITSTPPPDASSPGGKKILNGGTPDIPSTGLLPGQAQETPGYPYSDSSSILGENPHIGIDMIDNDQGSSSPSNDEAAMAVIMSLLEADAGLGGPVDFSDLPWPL

| Variant | effect of a mutation on the interaction (Bmal1, Q9WTL8-4 [1]) | effect of a mutation on the interaction (Bmal1, Q9WTL8-4 [2]) | effect of a mutation on the interaction (Bmal1, Q9WTL8-4 [3]) |
| --- | --- | --- | --- |
| V315R | with no effect | decreasing interaction strength | – |
| W284A | disrupting interaction strength | – | decreasing interaction strength |
| L74E | disrupting interaction strength | decreasing interaction strength | – |
| L57E | with no effect | decreasing interaction strength | – |
| L57E;L113E;W284A | disrupting interaction strength | disrupting interaction strength | – |
| F122D | with no effect | – | – |
| L113E | with no effect | – | – |
